Measurements reported in PMC10246534 (Nature Communications, 2023).

Target: Delta RBD WT (SARS-CoV-2, Delta variant (B.1.617.2), L452R)
Assay: SPR; Biacore T200; […]; HBS-EP, 25 °C; 1:1 binding model
Conditions: both partners purified

Binder | Kd
imdevimab (antibody, V domains shown, source: Regeneron) VH: QVQLVESGGGVVQPGRSLRLSCAASGFTFSNYAMYWVRQAPGKGLEWVAVISYDGSNKYYADSVKGRFTISRDNSKNTLYLQMNSLRTEDTAVYYCASGSDYGDYLLVYWGQGTLVTVSS VL: QSALTQPASVSGSPGQSITISCTGTSSDVGGYNYVSWYQQHPGKAPKLMIYDVSKRPSGVSNRFSGSKSGNTASLTISGLQSEDEADYYCNSLTSISTWVFGGGTKLTVL | 9.4 nM
casirivimab (antibody, V domains shown, source: Regeneron) VH: QVQLVESGGGLVKPGGSLRLSCAASGFTFSDYYMSWIRQAPGKGLEWVSYITYSGSTIYYADSVKGRFTISRDNAKSSLYLQMNSLRAEDTAVYYCARDRGTTMVPFDYWGQGTLVTVSS VL: DIQMTQSPSSLSASVGDRVTITCQASQDITNYLNWYQQKPGKAPKLLIYAASNLETGVPSRFSGSGSGTDFTFTISGLQPEDIATYYCQQYDNLPLTFGGGTKVEIK | 0.36 nM
